Data reported in PMC10366546.
Several values for one entry are separate records, joined by “and”; a condition that tells them apart may be missing. Identical values can stand only once.

Molecular target: Ostreolysin A6 (Pleurotus ostreatus)
Assay: high-speed atomic force microscopy; OlyA6 added (final around 0.35 uM, 5.8 ug/ml) to a d17:1/12:0-CPE/Chol (1:1) supported lipid bilayer on mica, PBS 10 mM pH 7.5, room temperature; self-assembly on the membrane

stoichiometry N: 6 and 2
Substance: Ostreolysin A6 (natural protein)
